Results reported in the supplement of paper PMC10567573.
± gives the standard deviation.

Experiment: protein stability index of a GFP-peptide fusion (GPS, HEK-293T) (PSI 1-6); higher = more stable
[1] = treatment: DMSO, c terminus: a fixed tail appended
[2] = treatment: MLN4924 1 uM, 8 h, c terminus: a fixed tail appended
[3] = treatment: DMSO, c terminus: native
[4] = treatment: MLN4924 1 uM, 8 h, c terminus: native
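Further: 24-mer peptide tiles fused after GFP, lentivirally expressed, FACS-sorted into six equal bins by GFP/DsRed ratio, decoded by Illumina sequencing, PSI is the read-weighted mean bin number.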

Row | Sequence | protein stability index [1] | protein stability index [2] | protein stability index [3] | protein stability index [4]
1 | DARMLDHLTKKDLRVHLKMVDSFH [PPFIA4] | 2.48 ± 0.37 | 2.78 ± 0.44 | – | –
2 | KNLYKLASQCCGVHVISLHIWELS [PTGFR] | 2.97 ± 0.15 | 3.06 ± 0.48 | – | –
3 | GTGRSAKEQVLRKGTENLQRAQAE [FCHSD1] | 5.09 ± 0.19 | 5.02 ± 0.4 | – | –
4 | KGFPGCKLGLHDNHWVPACHSFNR [FBXO34] | 2.26 ± 0.69 | 2.48 ± 0.15 | – | –
5 | TEGFTSGRHYWEVEVGDKTHWAVG [TRIM39] | 2.85 ± 0.44 | 2.93 ± 1.1 | – | –
6 | KNVELKFVDSIRRQFEFSVDSFQI [TENT5C] | 2.29 ± 0.6 | 2.42 ± 0.39 | – | –
7 | AAIKVNDSVPFHLGWNSTERSLRL [MYORG] | 2.61 ± 0.16 | 2.81 ± 0.38 | – | –
8 | RIHSGEKPYGCVECGKAFSRSSIL [ZNF24] | 2.24 ± 0.31 | 2.83 ± 0.23 | – | –
9 | LAGTQLLYAFFTRTHGDMHSLVRS [TRIB3] | 3.13 ± 0.38 | 3.05 ± 0.35 | – | –
10 | RGRFGELLLLLPTLQSITWQMIEQ [HNF4A] | 2.94 ± 0.28 | 3.33 ± 0.3 | – | –
11 | PARDYVVLRTWRTNLPKGACALLL [DLC1] | 2.47 ± 1.3 | 2.22 ± 0.4 | – | –
12 | DGTAENGIHPLSSSEVDELIHKAD [PALM] | 5.38 ± 0.2 | 5.35 ± 0.42 | – | –
13 | LDMDDGTLSFIVDGQYMGVAFRGL [SPSB1] | 2.61 ± 0.67 | 2.32 ± 0.31 | – | –
14 | QKYKLFQQQQLTFTAALEHCRENA [SPACA9] | 2.86 ± 0.24 | 3.12 ± 0.29 | – | –
15 | GAHWMRQLVSFQKLKLTNNHLDPF [TBX5] | 2.18 ± 0.21 | 2.19 ± 0.45 | – | –
16 | PVMDVWARKQDMNTKRAIHTLAVM [KLHL14] | 2.34 ± 0.1 | 2.33 ± 0.17 | – | –
17 | GISNALHRLKLRLAIQEMVSLTSP [PPFIA4] | 2.46 ± 0.22 | 2.18 ± 0.13 | – | –
18 | GQQSDTAQLELYQLQVESNSSQLL [SCARA5] | 4.12 ± 0.13 | 4.16 ± 0.15 | – | –
19 | LIANRSYKVSAASSFFFSGVFVGV [SLC22A15] | 2.69 ± 0.8 | 2.49 ± 0.64 | – | –
20 | ESHEVPGTLSMGVPQIFKYGETCF [ZNF24] | 2.74 ± 0.39 | 2.89 ± 0.73 | – | –
21 | LFYKPGIVLLLALAKYLKMNNFL [GULP1] | – | – | 2.87 ± 0.92 | 2.87 ± 0.91
22 | TASSSYGKGEGPIWLDNLHCTGNE [LOXL2] | 3.91 ± 0.16 | 3.91 ± 0.25 | – | –

Row | Sequence | protein stability index [1] | protein stability index [2] | protein stability index [3] | protein stability index [4]
23 | QSNVLCSIFGICMVFSGLCPLLLG [PTGFR] | 2.75 ± 0.23 | 2.63 ± 0.34 | – | –
24 | IVSEVQFVESSGGGSSAVGQFVSL [BRF1] | 2.25 ± 0.23 | 2.23 ± 0.26 | – | –
25 | GHSHHSHHGHPSHQSHSLPNRRH [C10orf62] | – | – | 2.97 ± 0.49 | 3.71 ± 0.35
26 | HASKCEFLANLHITALLNVSRRTS [DUSP5] | 2.2 ± 0.2 | 2.33 ± 0.22 | – | –
27 | MLDFLSERPWIKRMIFKLFSQETV [APMAP] | 1.98 ± 0.3 | 1.82 ± 0.26 | – | –
28 | HSYNVTQRRPRVLSCLHSVCEQCL [RNF208] | 2.87 ± 0.17 | 3.16 ± 0.33 | – | –
29 | LYCSTPTRTAEPAESSVPPVTSIG [SLC35F2] | 3.98 ± 0.25 | 4.08 ± 0.2 | – | –
30 | FFYDCSNNPISEHFHPTVIGESMY [TENT5C] | 2.16 ± 0.43 | 2.26 ± 0.16 | – | –
31 | YNIKLEGKVPMHKLFLEMLEAKV [ESRRG] | – | – | 2.83 ± 1.5 | 2.43 ± 1
32 | LNGDYGENIYPYEEDKDEKSSIYE [MIA2] | 3.78 ± 0.7 | 3.94 ± 0.72 | – | –
33 | GGYNLASVSVWDLAAPSLHVKEQL [TLE6] | 2.38 ± 0.16 | 2.68 ± 0.33 | – | –
34 | DDPSLRKTHSSPALSQGHVTGSKT [PSD2] | 5.5 ± 0.32 | 5.5 ± 0.33 | – | –
35 | KLSARDHQKLEREARICRLLKHPN [CAMK2D] | 3.38 ± 0.31 | 3.8 ± 0.39 | – | –
36 | ELERFVNLHSLALDFCDFTAEMAR [FBXO33] | 2.23 ± 0.11 | 2.61 ± 0.29 | – | –
37 | EERRVVHASGDASYSAGDSGDAAA [EPB41L3] | 5.49 ± 0.32 | 5.42 ± 0.17 | – | –
38 | TVYNEMDKNRCELLSFLLLMDYIG [EDNRA] | 2.09 ± 0.34 | 2.17 ± 0.5 | – | –
39 | AFEFKKPVRPVSRGCLHSHGLQEG [CDC25A] | 2.87 ± 0.28 | 2.82 ± 0.23 | – | –
40 | SLDSLDGLSLTDESDSCVSFEAPL [PSD2] | 4.95 ± 0.2 | 4.86 ± 0.23 | – | –
41 | CSTNKPEGYRVSQALRENTYPFLA [FAF2] | 2.54 ± 0.2 | 2.53 ± 0.4 | – | –
42 | ETDHLSMEEEDPMPRQISRQSSVT [TPRG1] | 5.37 ± 0.21 | 5.28 ± 0.36 | – | –
43 | TRKHAHHCHKRRTRSCSSASSRSQ [CLK3] | 4.65 ± 0.2 | 4.82 ± 0.19 | – | –
44 | KGKVLAQQGEYSEAIPILRAALKL [FKBP8] | 2.37 ± 0.38 | 2.42 ± 0.56 | – | –

Row | Sequence | protein stability index [1] | protein stability index [2] | protein stability index [3] | protein stability index [4]
45 | TLLPWNFFMTATQYFTNRLDMSQN [SLC29A1] | 2.9 ± 0.49 | 2.85 ± 0.37 | – | –
46 | LFQFSNCSQGQQLATFSSDWEIQE [CCDC3] | 3.12 ± 0.45 | 2.94 ± 0.33 | – | –
47 | RDGGLCVNDLAVGLRRLGLHRTEG [SLC25A25] | 3.12 ± 0.16 | 2.99 ± 0.14 | – | –
48 | TDGSVLAAGTHDGSVYFWATPRQV [WSB1] | 2.9 ± 0.18 | 2.89 ± 0.37 | – | –
49 | GPMMKLKRHFVAQKYKKQIDHMYH [ACSBG2] | 2.1 ± 0.14 | 2.42 ± 0.37 | – | –
50 | EDLEDLGAVAPPVSGDLTKEDIDL [NFE2L1] | 5.71 ± 0.4 | 5.3 ± 0.76 | – | –
51 | IVRRFLNICENTEGAIAVHCKAGL [CDC14A] | 2.36 ± 0.39 | 2.11 ± 0.23 | – | –
52 | GGAAWSIGAAPFSGRRNWCSYVVT [EMID1] | 1.94 ± 0.58 | 2.08 ± 0.095 | – | –
53 | AGRGGAAGTAGVGETGSGDQAGGE [MYOZ1] | 5.63 ± 0.24 | 5.43 ± 0.32 | – | –
54 | WGFVHPRLLSVPELCHHVAEVWVS [RETREG3] | 3.04 ± 0.64 | 2.63 ± 0.57 | – | –
55 | KLPSSGSGKRLSGVSSVDSAFSSR [RIPK4] | 3.9 ± 0.095 | 3.99 ± 0.4 | – | –
56 | QFHCHKAVLASCSQYFRSLFSSHP [KLHL14] | 2.95 ± 0.43 | 2.81 ± 0.4 | – | –
57 | DDFRSKYQTEQSLRLLVESDINSI [KRT34] | 3.77 ± 0.098 | 3.94 ± 0.27 | – | –
58 | KPSKELKPLLGSAVLGLLLVLAAV [MYORG] | 2.4 ± 0.25 | 2.34 ± 0.28 | – | –
59 | SKGMSIFLDILRRADKNDDGKLSF [NECAB1] | 2.27 ± 0.12 | 2.33 ± 0.17 | – | –
60 | LASPHTVAAVLEAVAQTAHLPADS [RSAD1] | 3.61 ± 0.33 | 3.83 ± 0.25 | – | –
61 | GDWSAFNQAPSGPVASSGEFFGSA [CLINT1] | 4.16 ± 0.26 | 4.31 ± 0.18 | – | –
62 | LQVIKALKSSGLCESLTYGLPFIL [M1AP] | 3.04 ± 0.94 | 2.81 ± 0.83 | – | –
63 | APHTPPLPRRPRKGSSELGFPRVA [RNF208] | 4.17 ± 0.21 | 4.06 ± 0.13 | – | –
64 | SPEKEEQYIAQFTSQFLSLQCLQA [PRAME] | 2.84 ± 0.41 | 2.44 ± 0.37 | – | –
65 | PLSPIQASSVHLKSESSLPHQTSK | 5.02 ± 0.19 | 5.05 ± 0.088 | – | –
